# Assay results reported in US20210363204A1.
# Target: human Nav1.7, Q15858
# Conditions: chains peptide; modification not given
binder,measurement,value
GPYCQKWMWTCDSERKCCEGMVCRLWCKKKLW [recombinant Protoxin-II],IC50,62 nM
